The Km is the concentration of substrate that gives half-maximal velocity. The term kcat denotes the number of substrate molecules converted per active site and unit of time at saturation. A word on the kcat/Km: it is the second-order rate constant that governs catalysis at low substrate concentration.

One protein from patent US20030113711A1, “Protein kinase peptide substrate determination using peptide libraries” (priority 2001, published 2003) can be followed below.

Common to all, as to type: biochemical
Substrate in series [1]: CC[C@H](C)[C@H](NC(=O)[C@H](CC(=O)O)NC(=O)[C@H](CCC(=O)O)NC(=O)[C@H](CCSC)NC(=O)CNC(=O)CNC(=O)CCCCCNC(=O)CCCC[C@@H]1SC[C@@H]2NC(=O)N[C@@H]21)C(=O)N[C@@H](Cc1ccc(O)cc1)C(=O)N[C@@H](Cc1ccccc1)C(=O)N[C@@H](CCC(=O)O)C(=O)N[C@@H](Cc1ccccc1)C(=O)N[C@@H](CCSC)C(=O)NCC(=O)NCC(=O)N[C@@H](CCCCN)C(=O)N[C@@H](CCCCN)C(=O)N[C@@H](CCCCN)C(N)=O
The series is described as follows: Two-substrate kinetic comparison with known substrate, peptide and ATP varied simultaneously. The note with it: other: ErbB-4; peptide and ATP concentrations varied simultaneously, two-substrate fit. The method, then: (§1) In a separate experiment, the kinetic parameters of both peptide number 1 shown in Table 2, and a peptide with the sequence Biotin-Ahx-G-G-M-E-D-I-Y-F-E-F-M-G-G-K-K-K-amide (SEQ ID NO: 17), which has been previously identified as an ErbB-2 substrate (Jan et. al., (2000), Biochemistry 39: 9786-803), were determined and compared. In this experiment, both peptide and ATP concentrations were varied, and the resulting data was simultaneously fit to an equation representing a two-substrate enzyme reaction using SIGMAPLOT®. Data was collected using the kinases ErbB-2, ErbB-4, and EGFR. The results of this experiment are shown in Table 3 and indicate that for all three kinases tested, peptide number 1 shown in Table 2 is kinetically at least equivalent (based on kcat/Km values) to the known peptide substrate identified by Jan et al.

Substrate in series [2]: CC[C@H](C)[C@H](NC(=O)[C@H](CCC(=O)O)NC(=O)[C@H](CCC(=O)O)NC(=O)[C@H](Cc1c[nH]cn1)NC(=O)[C@H](C)NC(=O)[C@H](CCCNC(=N)N)NC(=O)CCCCCNC(=O)CCCC[C@@H]1SC[C@@H]2NC(=O)N[C@@H]21)C(=O)N[C@@H](Cc1ccc(O)cc1)C(=O)N[C@@H](Cc1c[nH]cn1)C(=O)N[C@@H](Cc1ccccc1)C(=O)N[C@@H](Cc1ccccc1)C(=O)N[C@@H](Cc1ccccc1)C(=O)N[C@@H](C)C(=O)N[C@@H](CCCCN)C(=O)N[C@@H](CCCCN)C(=O)N[C@@H](CCCCN)C(N)=O
The series is described as above. Particulars: other: ErbB-4; peptide and ATP concentrations varied simultaneously, two-substrate fit. The method, then:
as §1

Substrate in series [3]: CC[C@H](C)[C@H](NC(=O)[C@H](Cc1ccccc1)NC(=O)[C@H](Cc1c[nH]cn1)NC(=O)[C@H](Cc1ccc(O)cc1)NC(=O)[C@H](CCC(=O)O)NC(=O)[C@H](CCC(=O)O)NC(=O)[C@H](CCC(=O)O)NC(=O)[C@H](Cc1c[nH]cn1)NC(=O)[C@H](C)NC(=O)[C@H](CCCNC(=N)N)NC(=O)CCCCCNC(=O)CCCC[C@@H]1SC[C@@H]2NC(=O)N[C@@H]21)C(=O)N[C@@H](Cc1ccccc1)C(=O)N[C@@H](C)C(=O)N[C@@H](CCCCN)C(=O)N[C@@H](CCCCN)C(=O)N[C@@H](CCCCN)C(N)=O
Description: Kinetic evaluation of peptide substrates, varying peptide at fixed ATP (phosphocellulose filter, [γ-33P]ATP). The note with it: other: ErbB-4; Km for peptide; ATP concentration >10 × Km (200 μM ATP); pH 7.5; 23.0 °C. The method, then: (§2) Peptide sequences identified as preferred substrates for ErbB-2 using the methods described in Laboratory Example 3 were synthesized. The kcat and Km values for each peptide were determined as follows, using the kinases ErbB-2, ErbB-4, and EGFR.
(§3) Reactions were performed in 96-well polystyrene round bottom plates in a final volume of 45 μL. Reaction mixtures contained 50 mM MOPS, pH 7.5, 10 mM MnCl2, 1 mM dithiothreitol (DTT), 200 μM ATP, 1.0 μCi [γ-^33P] ATP, and varying concentrations of peptide. The reaction was initiated by adding the purified kinase of interest and halted after 10 minutes at 23° C. (room temperature) by adding 45 μL of 0.5% phosphoric acid in water. A 75 μL aliquot of the halted reaction mixture was then transferred to MAPH phosphocellulose filter plates (Millipore, Bedford, Mass.). The plates were filtered three times with 0.2 mL of 0.5 percent phosphoric acid. Scintillation cocktail (50 μL) was added to each well, and the plate was analyzed by counting in a Packard TOPCOUNT® scintillation counter (Packard Instrument Co., Meriden, Conn.). In these assays, the concentration of ATP was greater than ten-fold higher than the Km for ATP, which permitted the kinetic data to be treated as a pseudo-first-order reaction with varying peptide concentration. All experiments were performed in quadruplicate and the average value for each data point was analyzed. The Km and Vmax values were calculated by fitting the data to the Henri-Michaelis-Menten equation by non-linear regression using SIGMAPLOT® (SPSS Science, Chicago, Ill.). kcat values were calculated using the Vmax value, and are based on the protein concentration of the enzyme preparation and an estimate of purity determined from an evaluation of a Coomassie Blue stained SDS-polyacrylamide gel.

Substrate in series [4]: C[C@H](NC(=O)[C@H](CCCNC(=N)N)NC(=O)CCCCCNC(=O)CCCC[C@@H]1SC[C@@H]2NC(=O)N[C@@H]21)C(=O)N[C@@H](Cc1c[nH]cn1)C(=O)N[C@@H](CCC(=O)O)C(=O)N[C@@H](CCC(=O)O)C(=O)N[C@@H](CCC(=O)O)C(=O)N[C@@H](Cc1ccc(O)cc1)C(=O)N[C@@H](Cc1c[nH]cn1)C(=O)N[C@@H](Cc1ccccc1)C(=O)N[C@@H](Cc1ccccc1)C(=O)N[C@@H](Cc1ccccc1)C(=O)N[C@@H](C)C(=O)N[C@@H](CCCCN)C(=O)N[C@@H](CCCCN)C(=O)N[C@@H](CCCCN)C(N)=O
The description is as above. Particulars: other: ErbB-4; Km for peptide; ATP concentration >10 × Km (200 μM ATP); pH 7.5; 23.0 °C. The method, then:
as §2, §3

Substrate in series [5]: CC[C@H](C)[C@H](NC(=O)[C@H](CCC(=O)O)NC(=O)[C@H](Cc1c[nH]cn1)NC(=O)[C@H](Cc1c[nH]cn1)NC(=O)[C@H](C)NC(=O)[C@H](CCCNC(=N)N)NC(=O)CCCCCNC(=O)CCCC[C@@H]1SC[C@@H]2NC(=O)N[C@@H]21)C(=O)N[C@@H](Cc1ccc(O)cc1)C(=O)N[C@@H](Cc1c[nH]cn1)C(=O)N[C@@H](Cc1ccccc1)C(=O)N[C@@H](Cc1ccccc1)C(=O)N[C@@H](Cc1ccccc1)C(=O)N[C@@H](C)C(=O)N[C@@H](CCCCN)C(=O)N[C@@H](CCCCN)C(=O)N[C@@H](CCCCN)C(N)=O
The description is as above. Particulars: other: ErbB-4; Km for peptide; ATP concentration >10 × Km (200 μM ATP); pH 7.5; 23.0 °C. The method, then: as §2, §3

Substrate in series [6]: CC[C@H](C)[C@H](NC(=O)[C@H](CCC(=O)O)NC(=O)[C@H](CCC(=O)O)NC(=O)[C@H](Cc1c[nH]cn1)NC(=O)[C@H](C)NC(=O)[C@H](CCCNC(=N)N)NC(=O)CCCCCNC(=O)CCCC[C@@H]1SC[C@@H]2NC(=O)N[C@@H]21)C(=O)N[C@@H](Cc1ccc(O)cc1)C(=O)N[C@@H](Cc1c[nH]cn1)C(=O)N[C@@H](Cc1ccccc1)C(=O)N[C@@H](Cc1ccccc1)C(=O)N[C@@H](Cc1ccccc1)C(=O)N[C@@H](C)C(=O)N[C@@H](CCCCN)C(=O)N[C@@H](CCCCN)C(=O)N[C@@H](CCCCN)C(N)=O
The description is as above. Particulars: other: ErbB-4; Km for peptide; ATP concentration >10 × Km (200 μM ATP); pH 7.5; 23.0 °C. The procedure:
as §2, §3

B1: ErbB-4 (Homo sapiens) (protein)
chain: QSVCAGTENKLSSLSDLEQQYRALRKYYENCEVVMGNLEITSIEHNRDLSFLRSVREVTGYVLVALNQFRYLPLENLRIIRGTKLYEDRYALAIFLNYRKDGNFGLQELGLKNLTEILNGGVYVDQNKFLCYADTIHWQDIVRNPWPSNLTLVSTNGSSGCGRCHKSCTGRCWGPTENHCQTLTRTVCAEQCDGRCYGPYVSDCCHRECAGGCSGPKDTDCFACMNFNDSGACVTQCPQTFVYNPTTFQLEHNFNAKYTYGAFCVKKCPHNFVVDSSSCVRACPSSKMEVEENGIKMCKPCTDICPKACDGIGTGSLMSAQTVDSSNIDKFINCTKINGNLIFLVTGIHGDPYNAIEAIDPEKLNVFRTVREITGFLNIQSWPPNMTDFSVFSNLVTIGGRVLYSGLSLLILKQQGITSLQFQSLKEISAGNIYITDNSNLCYYHTINWTTLFSTINQRIVIRDNRKAENCTAEGMVCNHLCSSDGCWGPGPDQCLSCRRFSRGRICIESCNLYDGEFREFENGSICVECDPQCEKMEDGLLTCHGPGPDNCTKCSHFKDGPNCVEKCPDGLQGANSFIFKYADPDRECHPCHPNCTQGCNGPTSHDCIYYPWTGHSTLPQHARTPLIAAGVIGGLFILVIVGLTFAVYVRRKSIKKKRALRRFLETELVEPLTPSGTAPNQAQLRILKETELKRVKVLGSGAFGTVYKGIWVPEGETVKIPVAIKILNETTGPKANVEFMDEALIMASMDHPHLVRLLGVCLSPTIQLVTQLMPHGCLLEYVHEHKDNIGSQLLLNWCVQIAKGMMYLEERRLVHRDLAARNVLVKSPNHVKITDFGLARLLEGDEKEYNADGGKMPIKWMALECIHYRKFTHQSDVWSYGVTIWELMTFGGKPYDGIPTREIPDLLEKGERLPQPPICTIDVYMVMVKCWMIDADSRPKFKELAAEFSRMARDPQRYLVIQGDDRMKLPSPNDSKFFQNLLDEEDLEDMMDAEEYLVPQAFNIPPPIYTSRARIDSNRSEIGHSPPPAYTPMSGNQFVYRDGGFAAEQGVSVPYRAPTSTIPEAPVAQGATAEIFDDSCCNGTLRKPVAPHVQEDSSTQRYSADPTVFAPERSPRGELDEEGYMTPMRDKPKQEYLNPVEENPFVSRRKNGDLQALDNPEYHNASNGPPKAEDEYVNEPLYLNTFANTLGKAEYLKNNILSMPEKAKKAFDNPDYWNHSLPPRSTLQHPDYLQEYSTKYFYKQNGRIRPIVAENPEYLSEFSLKPGTVLPPPPYRHRNTVV
B1: the Km in series [1] amounted to 144 µM; in series [2], 41 µM; in series [3], 12.5 µM; in series [4] it was 6 µM; in series [5] it was 37.6 µM; in series [6], 8 µM. Besides, the kcat in series [1] came out at 0.0767 s⁻¹; in series [2] it was 0.105 s⁻¹; in series [3], 0.0217 s⁻¹; in series [4], 0.015 s⁻¹; in series [5] it was 0.0767 s⁻¹; in series [6] it was 0.0683 s⁻¹. Further, the catalytic efficiency (kcat/Km) is 533 M⁻¹ s⁻¹ in series [1]; 2500 M⁻¹ s⁻¹ in series [2]; 1670 M⁻¹ s⁻¹ in series [3]; 2500 M⁻¹ s⁻¹ in series [4]; 2000 M⁻¹ s⁻¹ in series [5]; 8500 M⁻¹ s⁻¹ in series [6].
